{"source": "patent US11344542B2", "about": "“Treatment of aging-associated disease with modulators of leukotriene A4 hydrolase” (Alkahest, Inc., priority 2018, dated 2022)", "molecules": {"B1": {"name": "recombinant human LTA4H: Recombinant human LTA4H (Bio-techne, 4008-SN), leukotriene A4 hydrolase enzyme, dosed by tail vein i.v. injection (protein, UniProt P09960 2-611, looked up)", "Leukotriene A-4 hydrolase": "PEIVDTCSLASPASVCRTKHLHLRCSVDFTRRTLTGTAALTVQSQEDNLRSLVLDTKDLTIEKVVINGQEVKYALGERQSYKGSPMEISLPIALSKNQEIVIEISFETSPKSSALQWLTPEQTSGKEHPYLFSQCQAIHCRAILPCQDTPSVKLTYTAEVSVPKELVALMSAIRDGETPDPEDPSRKIYKFIQKVPIPCYLIALVVGALESRQIGPRTLVWSEKEQVEKSAYEFSETESMLKIAEDLGGPYVWGQYDLLVLPPSFPYGGMENPCLTFVTPTLLAGDKSLSNVIAHEISHSWTGNLVTNKTWDHFWLNEGHTVYLERHICGRLFGEKFRHFNALGGWGELQNSVKTFGETHPFTKLVVDLTDIDPDVAYSSVPYEKGFALLFYLEQLLGGPEIFLGFLKAYVEKFSYKSITTDDWKDFLYSYFKDKVDVLNQVDWNAWLYSPGLPPIKPNYDMTLTNACIALSQRWITAKEDDLNSFNATDLKDLSSHQLNEFLAQTLQRAPLPLGHIKRMQEVYNFNAINNSEIRFRWLRLCIQSKWEDAIPLALKMATEQGRMKFTRPLFKDLAAFDKSHDQAVRTYQEHKASMHPVTAMLVGKDLKVD"}}, "key": {"[1]": {"test_system": "mRNA levels of neuronal and glial genes", "test": "qPCR of mRNA levels in young mice treated with recombinant human LTA4H protein", "format": "in vivo, mouse", "settings": "paradigm 1; vs PBS", "method": "Brain tissue was sectioned or lysed and analyzed for markers of neurogenesis and aging by standard histological and biochemical methods, including qRT-PCR, Western blot, ELISA, and immunohistochemistry.\nYoung, 8-week old wild-type (WT; C57BL/6) mice were homogenized between groups by body weight. Following group determination, mice were injected intraperitoneally (IP) with BrdU (5-bromo-2′-deoxyuridine) formulated in PBS (phosphate buffered saline) at a final concentration of 10 mg/mL dosed at 150 mg/kg for 5 days Immediately following the BrdU dosing, group 1 was injected intravenously (IV) with PBS control and group 2 with recombinant human LTA4H protein daily for 7 consecutive days. One week after the completion of LTA4H administration, in week 3, mice in both treatment groups were injected IP with EdU (5-ethynyl-2′-deoxyuridine) formulated in PBS at a final concentration of 10 mg/mL and dosed at 50 mg/kg for 5 days. Behavioral assays were executed in week 5 and 6, and animals were sacrificed, and tissues collected immediately after completion of behavior testing in week 6. FIG. 3 depicts the treatment paradigm and injection timing for the study.\nFIG. 9 reports the results of quantitative polymerase chain reaction (qPCR) quantifying mRNA levels of vesicular glutamate […] (vglut1), synapsin 1 (syn1), synaptophysin (syp), early growth response 1 (egr1), doublecortin (dcx), beta III tubulin (tuj1), glial acidic fibrillary protein (gfap), SRY-Box 2 (sox2), oligodendrocyte transcription factor 2 in 3 months old (young) wild-type (C57BL/6) mice treated with recombinant human LTA4H protein or phosphate buffered saline (PBS) control. […] Egr1 is an immediate early gene and a reduction in expression is indicative of a depression of neuronal activity. Tuj1 is a neuronal marker and the reduction in expression points to detrimental effects on neurons. […] Overall the decreases in neuronal markers and trends towards decreases in oligodendrocyte markers indicate a detrimental effect on neuronal activity and integrity in LTA4H treated animals. […]"}, "[2]": {"test_system": "8-week old (young) wild-type (C57BL/6) mice", "test": "Contextual and cued fear conditioning in young mice treated with recombinant human LTA4H protein", "format": "in vivo, mouse", "method": "Mice were brought into the testing room immediately before their trial to avoid exposure to sounds and scents from testing. Day 1: For training, mice were placed in the chambers, bright house light and fan on, for 2 minutes. Then an auditory cue (2000 Hz, 70 dB, conditioned stimulus (CS)) was presented for 30 seconds. A 2 second foot shock (0.6 mA; unconditioned stimulus (US)) was administered for the final 2 seconds of the CS. This procedure was repeated once, each after a 2 minute interval, and the mouse was removed from the chamber 30 seconds after the second shock. The pans, chamber walls and grid floors were cleaned with 70% ethanol between trials. Day 2: Seventy-two hours after the training, the mouse was returned to the same chamber in which the training occurred (memory for context), and freezing behavior was recorded for 3 min. The mouse was returned to its home cage. The pans, chamber walls, and grid floors were cleaned with 70% ethanol between trials. Day 3: 24 hours after context testing, the mouse was returned to the same chamber and freezing was recorded in a novel environment (altered context) and in response to the cue (memory for cue). […] The mouse was placed in the novel environment and freezing was recorded for 2 minutes. The auditory cue (2000 Hz, 70 dB, CS) was then presented for 30 seconds, and freezing was again recorded for 2 minutes. […]"}}, "data": [{"molecule": "B1", "values": [{"measurement": "egr1 mRNA expression (qPCR)", "setting": "[1]", "value": "significant decrease"}, {"measurement": "olig 2 mRNA expression (qPCR)", "setting": "[1]", "value": "trend towards a decrease"}, {"measurement": "tuj1 mRNA expression (qPCR)", "setting": "[1]", "value": "significant decrease"}, {"measurement": "percent time freezing during contextual testing", "setting": "[2]; 72 hours after training, IV daily for 7 consecutive days, vs PBS", "value": "significantly decreased freezing"}, {"measurement": "percent time freezing during cued testing", "setting": "[2]; pre/post cue tone, difference between treatment groups", "value": "no significant difference between treatment groups"}]}]}
